To fix the notation:
B1: LK-RB1-39 (antibody, human IgG4 S228P, kappa, V domains shown)
VH: EVQLQQSGAELVRPGASVKLSCTASGFNIKDDYVHWVNQRPEQGLEWIGWIDPENGDTGYASKFQDKATITADTSSNTAYLHLSSLTSEDTAVYYCTTTRWTGSYWGQGTTLTVSS
VL: QIVLTQSPAIMSASPGEKVTITCSASSSVNYMHWFQQKPGSSPKLWIYSTANLASGVPARFSGSGSGTSYSLTISRMEAEDAATYYCQQRSSYPPTWTFGGGTKLEIKR
B2: LK-RB2-8 (antibody, human IgG4 S228P, kappa, V domains shown)
VH: QIQLVQSGPELKKPGETVKISCKASGYSFASYGMGWVKQAPGKGLKWLGWINTHSGVPTYADDFKGRFAFSLETSASTAYLQINNLKNEDTATYFCAHYGRPWFPYWGQGTLVTVSA
VL: DIQMTQSPASLSASVGETVTITCRTSENIYSYLAWYQQKQGKSPQLLVYNAKSLAEGVPSRFSGSGSGTQFSLRINSLQPEDFGTYYCQQHYETPLTFGAGTKLELKR
B3: LK-RB2-16 (antibody, human IgG4 S228P, kappa, V domains shown)
VH: B2 VH with S28T, A30T, S31T, G42E, L48M, H54N, V57A, A61G, P105A
VL: B2 VL with T25A, Q37H, K42E, S53T, R74K, T85S, Q90H, E93N, T94I
B4: LK-RB2-24 (antibody, human IgG4 S228P, kappa, V domains shown)
VH: QIQLVQSGPEVKKPGETVKISCKASGYTFTTYGMSWVKQAPGKGLKWMGWLNIYSGVPAYADDFKGRFAFSLESSASTAYLQINNLKNEDTATYFCARRENYDGYGMDYWGQGTSVTVSS
VL: DIVMTQSPATLSVTPGDRVSLSCRASQSISDYLHWYQQKSHESPRLLIKYASQSISGIPSRFSGSGSGSDFTLSINSVEPEDVGVYYCQNGHSFPYTFGGGTKLEIKR
B5: LK-RB2-12 (antibody, human IgG4 S228P, kappa, V domains shown)
VH: QIQLVQSGPELKKPGETVKISCKASGYTFTTYGMSWVKQTPGKGLKWMGWINIYSGVPTYADDFKGRFVFSLEISASTAHLQINNLKNEDTATYFCARRKDYSGHCFDYWGQGTTLTVSS
VL: DIVLTQSPASLAVSPGQRATISCRASESVDTYGISFMHWYQQKPGQPPKLLIYRASNLESGIPARFSGSGSRTDFTLTINPVETDDVAIYYCQQSKKDPYTFGGGTKLEIKR
B6: 15G8 (antibody, human IgG4 S228P, kappa, V domains shown)
VH: DVQLQGSGPGLVKPSETLSLTCSVTGYSITSGYYWNWIRQFPGKKLEWMGYISYDGSNNYNPSLKNRITISRDTSKNQFSLKLNSVTAADTATYYCAHGYSYYYAMDAWGQGTSVTVSS
VL: DIQMTQSPSSLSASVGDRVTITCRTSQDISNYLNWYQQKPGKAVKLLISYTSRLHSGVPSRFSGSGSGTDYTLTISSLQPEDFATYYCQQGNTLPTFGQGTKLEIKR
B7: LK-RB2-8 (antibody, human IgG4 S228P, kappa, V domains shown)
VH: B2 VH
VL: B2 VL
B8: LK-RB2-16 (antibody, human IgG4 S228P, kappa, V domains shown)
VH: B2 VH with S28T, A30T, S31T, G42E, L48M, H54N, V57A, A61G, P105A
VL: B2 VL with T25A, Q37H, K42E, S53T, R74K, T85S, Q90H, E93N, T94I
B9: 3C1 (antibody, human IgG4, kappa, V domains shown)
VH: EVQLVESGGGLVQPGGSLRLSCAASGFTFSDYDMHWVRQATGKGLEWVATIDTAGDTYYPDSVRGRFTISRENAKNSLSLQMNSLRAGDTAVYFCARDVPGTGFDHWGQGTLVTVSS
VL: SSELTQDPAVSVALGQTVRITCQGDSLRSYYESWYQQKPGQAPVLVIYGKNNRPSGIPDRFSGSISGNTASLTITGTQAEDEADYYCNSRDNSGDHWVFGGGTRLTVLG
B10: LK-RB1-59 (antibody, human IgG4 S228P, kappa, V domains shown)
VH: QIQLVQSGPELKKPGETVKISCKASGYTFTTYGMSWVKQAPGKGLKWMGWINTYSGVPTYADDFKGRFAFSLETSASTAYLQINNLKNEDTATYFCARRRIYYGNKGYAMDYWGQGTSVTVSS
VL: DIQMTQSPASLSVSVGETVTITCRASENIYSNLVWYQQKQGKSPQLLVYTATNLADGVPSRFSGSGSGTQFSLKINSLQSEDFGSYYCQHFWGTPWTFGGGTKLEIKR
B11: LK-RB2-5 (antibody, human IgG4 S228P, kappa, V domains shown)
VH: QIQLVQSGPELKKPGETVKISCKASGYTFTTYGMSWVKQAPGKGLKWMGWINTYSGVPTYADDFKGRFAFSLETSVSTAYLQINNLKNEDTATYFCARRDGYDGGGNFDYWGQGTTLTVSS
VL: B4 VL with S93G, Y96W
B12: 12D12 (antibody, human IgG4 S228P, kappa, V domains shown)
VH: QVQLQQPGAELVKPGASVRMSCKASGYTFTSYWVHWVKQRPGQGLEWIGVIDPSDSYTSYNQNFKGKATLTVDTSSKTAYIHLSSLTSEDSAVYFCARGERYDGDYFAMDYWGQGTSVTVSS
VL: B10 VL with Q3V, V34A, T50A, G66R, F71Y, S85T, G93N, W96R
B13: LK-RB2-24.h2 (antibody, human IgG4, kappa, V domains shown)
VH: QVQLVQSGSELKKPGASVKVSCKASGYTFTTYGMSWVKQAPGQGLKWMGWLNIYSGVPAYADDFKGRFVFSLDTSASTAYLQISSLKAEDTAVYFCARRENYDGYGMDYWGQGTLVTVSS
VL: EIVLTQSPATLSLSPGERATLSCRASQSISDYLHWYQQKPGQAPRLLIKYASQSISGIPSRFSGSGSGTDFTLTISSLEPEDFAVYYCQNGHSFPYTFGGGTKLEIKR
notes: Humanized form of LK-RB2-24
B14: LK-RB2-24.h3 (antibody, human IgG4, kappa, V domains shown)
VH: B13 VH
VL: B13 VL with F83V
notes: Humanized form of LK-RB2-24
B15: LK-RB2-24.h1 (antibody, human IgG4, kappa, V domains shown)
VH: B13 VH
VL: B13 VL with S60A
notes: Humanized form of LK-RB2-24
B16: LK-RB2-2.h1 (antibody, human IgG4, kappa, V domains shown)
VH: EVQLVESGGGLVKPGGSLRLSCAASGFTFSSYAMSWVRQAPGKGLEWVSYISSGGDYFHYADTVKGRFTISRDNAKNSLYLQMNSLRAEDTAVYYCAREGAHYDSSYLAWFAHWGQGTLVTVSS
VL: DIQMTQSPSSVSASVGDRVTITCRASENIYSNLAWYQQKPGKAPKLLIYAATNLAEGVPSRFSGSGSGTDYTLTISSLQPEDFATYYCQQFWDNPLTFGQGTKLEIKR
notes: Humanized form of LK-RB2-2
B17: LK-RB2-2.h3 (antibody, human IgG4, kappa, V domains shown)
VH: B16 VH with S49A, A97T
VL: B16 VL
notes: Humanized form of LK-RB2-2
B18: LK-RB2-2.h2 (antibody, human IgG4, kappa, V domains shown)
VH: B16 VH
VL: B16 VL with I48V
notes: Humanized form of LK-RB2-2

Experimental findings from patent publication US20260234247A1 (published 2026) are described below.

Usually koff stands for the first-order rate constant of dissociation. A high value points to a short-lived complex. The EC50 is the concentration giving half of the maximal effect. Low readings indicate a more potent agent, high ones a less potent agent. As usually defined, the Kd is the equilibrium constant for the complex coming apart. A low value points to a tighter complex. One may read the kon as a measure of how fast the partners come together. A higher kon goes with fast association.

Numbering of substitutions follows the chain as printed.

T4 sequence (Q8N423 22-597): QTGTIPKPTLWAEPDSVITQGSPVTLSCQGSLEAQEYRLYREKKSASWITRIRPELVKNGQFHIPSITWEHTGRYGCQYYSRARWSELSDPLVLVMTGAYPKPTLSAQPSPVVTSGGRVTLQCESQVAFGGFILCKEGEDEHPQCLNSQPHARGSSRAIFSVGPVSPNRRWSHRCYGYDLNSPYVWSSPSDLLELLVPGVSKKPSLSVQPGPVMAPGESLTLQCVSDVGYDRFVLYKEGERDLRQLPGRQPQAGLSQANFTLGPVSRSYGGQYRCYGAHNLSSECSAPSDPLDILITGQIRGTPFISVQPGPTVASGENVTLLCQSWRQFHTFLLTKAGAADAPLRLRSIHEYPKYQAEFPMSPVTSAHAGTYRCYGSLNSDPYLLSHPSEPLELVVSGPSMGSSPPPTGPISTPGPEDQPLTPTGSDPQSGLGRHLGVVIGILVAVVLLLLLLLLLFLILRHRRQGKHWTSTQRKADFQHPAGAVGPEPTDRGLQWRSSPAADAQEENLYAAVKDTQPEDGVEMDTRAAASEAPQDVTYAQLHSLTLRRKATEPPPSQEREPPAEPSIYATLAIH
T5 sequence (Q8NHL6 24-458 limits assumed): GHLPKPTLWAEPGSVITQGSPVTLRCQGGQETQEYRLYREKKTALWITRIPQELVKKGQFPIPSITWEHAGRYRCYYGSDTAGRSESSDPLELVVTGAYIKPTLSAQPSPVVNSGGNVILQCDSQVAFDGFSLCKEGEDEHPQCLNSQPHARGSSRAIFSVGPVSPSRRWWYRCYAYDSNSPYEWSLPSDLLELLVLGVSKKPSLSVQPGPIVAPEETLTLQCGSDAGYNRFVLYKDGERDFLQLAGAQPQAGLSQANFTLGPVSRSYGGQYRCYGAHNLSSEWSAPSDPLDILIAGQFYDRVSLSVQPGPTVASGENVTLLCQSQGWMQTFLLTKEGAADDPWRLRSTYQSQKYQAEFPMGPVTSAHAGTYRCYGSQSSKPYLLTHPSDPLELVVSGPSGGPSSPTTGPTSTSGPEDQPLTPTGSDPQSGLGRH
T1 sequence (Q8NHL6 24-458 limits assumed): as above

The first assay has as its target T1, human LILRB1 (human, UniProt Q8NHL6 24-458, limits assumed).
T1 construct: also called hLILRB1
The assay can be described thus: Octet off-rate ranking.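 Also: antibody dissociation rate constants against cynomolgus LILRB2 plus human LILRB1, LILRB2, LILRA1 and LILRA2, measured on an Octet instrument to rank binding.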
Description: (§1) Binding affinity of anti-LILRB1 and anti-LILRB2 antibodies against human LILRB1, LILRB2, LILRA1, LILRA2 and cynomolgus LILRB2 was ranked by measuring dissociation rate constant (Kdis) using the Octet system.
Take B1: the koff worked out at 4.64e-05 s⁻¹.
Molecule B2 displayed a koff of 4.85e-05 s⁻¹.
As to B3, the koff was 0.000238 s⁻¹.
Take B4: the koff was 0.000205 s⁻¹.

In another assay the target is T2, human LILRB2 (human, UniProt Q8N423 22-460, limits assumed).
T2 construct: also called hLILRB2
T2 sequence (Q8N423 22-460 limits assumed): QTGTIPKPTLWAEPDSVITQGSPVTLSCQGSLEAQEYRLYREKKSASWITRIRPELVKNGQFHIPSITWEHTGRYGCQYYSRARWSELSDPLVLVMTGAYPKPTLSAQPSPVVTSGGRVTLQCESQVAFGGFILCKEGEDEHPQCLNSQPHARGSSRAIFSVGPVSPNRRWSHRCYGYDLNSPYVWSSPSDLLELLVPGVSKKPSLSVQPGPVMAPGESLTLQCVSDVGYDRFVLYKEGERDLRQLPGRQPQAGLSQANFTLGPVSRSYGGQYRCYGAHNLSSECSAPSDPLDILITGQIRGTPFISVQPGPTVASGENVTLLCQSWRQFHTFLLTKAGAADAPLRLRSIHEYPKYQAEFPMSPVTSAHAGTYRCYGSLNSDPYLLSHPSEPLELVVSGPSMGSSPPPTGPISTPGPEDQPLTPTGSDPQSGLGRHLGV
Briefly: Octet off-rate ranking.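 Also: antibody dissociation rate constants against cynomolgus LILRB2 plus human LILRB1, LILRB2, LILRA1 and LILRA2, measured on an Octet instrument to rank binding.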 Background: Biolayer interferometry detects binding as a change in optical thickness at a sensor tip.
Description: as §1
Molecule B1 had a koff of 0.00153 s⁻¹.
Take B2: the koff was 1e-07 s⁻¹.
B3 returned an off-rate (koff) of 5.5e-05 s⁻¹.
The molecule B4 displayed a koff of 0.000244 s⁻¹.

Another assay deals with T3, human LILRB1 expressed on CHOK1 cells (CHOK1-hLILRB1) (human, UniProt Q8NHL6 24-650).
T3 construct: whole, on cells; also called CHOK1-LILRB1
T3 sequence (Q8NHL6 24-650): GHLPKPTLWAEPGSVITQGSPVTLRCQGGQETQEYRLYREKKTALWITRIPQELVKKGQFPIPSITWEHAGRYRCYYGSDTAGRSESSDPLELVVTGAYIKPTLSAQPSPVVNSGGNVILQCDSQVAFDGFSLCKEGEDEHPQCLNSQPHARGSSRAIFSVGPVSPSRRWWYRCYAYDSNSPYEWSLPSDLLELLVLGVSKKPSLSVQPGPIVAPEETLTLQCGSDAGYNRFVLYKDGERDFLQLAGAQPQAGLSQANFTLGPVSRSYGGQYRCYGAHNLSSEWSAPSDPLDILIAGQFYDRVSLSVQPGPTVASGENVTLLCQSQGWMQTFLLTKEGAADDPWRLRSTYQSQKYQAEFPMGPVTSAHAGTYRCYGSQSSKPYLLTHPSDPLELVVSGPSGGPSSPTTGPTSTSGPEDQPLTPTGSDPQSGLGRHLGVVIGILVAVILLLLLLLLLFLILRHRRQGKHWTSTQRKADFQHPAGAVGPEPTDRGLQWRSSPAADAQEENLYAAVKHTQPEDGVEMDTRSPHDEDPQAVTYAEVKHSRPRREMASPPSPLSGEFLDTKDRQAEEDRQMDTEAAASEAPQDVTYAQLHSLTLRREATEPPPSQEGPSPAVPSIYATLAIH
Briefly: FACS binding to CHOK1-hLILRB1 cells. In general terms: A flow cytometer gives signals particle by particle.
B5 came in with an EC50 of 2.34 nM.
In turn, B6 displayed a 50% effective concentration (EC50) of 0.57 nM.
Still for that read-out and setting: as for B7, the figure is 4.55 nM.
Take B8: the response was half-maximal at 4.3 nM (EC50).
Consider B9, for which the response was half-maximal at 0.62 nM (EC50).
B10 yielded an EC50 of 0.65 nM.
On the same count and under the same terms, as for B11, the figure is 1.34 nM.

A further assay addresses T4, human LILRB2 expressed on CHOK1 cells (CHOK1-hLILRB2) (human, UniProt Q8N423 22-597).
T4 construct: whole, on cells; also called CHOK1-LILRB2
Briefly: FACS binding to CHOK1-hLILRB2 cells.
Take B5: a half-maximal response (EC50) required 0.16 nM.
For the molecule B6, the binding result is “no binding”.
For B7, the EC50 stood at 7.23 nM.
B8: the midpoint of the response, the EC50, lay at 6.01 nM.
With B9, the binding result is given as “no binding”.
Still for that read-out and setting: then B10, with “no binding”; and B12, with “no binding”.
B11 gave an EC50 of 0.27 nM.

A further assay addresses T5, human LILRB1-his (human, UniProt Q8NHL6 24-458, limits assumed).
T5 construct: Analyte of the Biacore run; not shown: His tag
Briefly: SPR (Biacore 8K), antibody captured via Fc, LILRB1-his as analyte, 1:1 model. Background: In SPR one partner is held on a chip, and binding of the other changes the refractive index at the surface.
Consider B13, for which the affinity, expressed as Kd, was 31.6 nM; the koff is 0.00582 s⁻¹; the kon is 184000 M⁻¹ s⁻¹.
On to B14, for which the Kd is 20.1 nM, the koff was 0.00335 s⁻¹ and the kon is 167000 M⁻¹ s⁻¹.
B15: the equilibrium dissociation constant (Kd) was found to be 25.1 nM, the koff came to 0.00446 s⁻¹ and the kon turned out to be 177000 M⁻¹ s⁻¹.

For a further assay, the target named is T6, human LILRB2-his (human, UniProt Q8N423 22-460, limits assumed).
T6 construct: Analyte of the Biacore run; not shown: His tag
T6 sequence (Q8N423 22-460 limits assumed): as the sequence (Q8N423 22-460 limits assumed) above
The assay can be described thus: SPR (Biacore 8K), antibody captured via Fc, LILRB2-his as analyte, 1:1 model.
The molecule B16 had a Kd of 0.161 nM, a koff of 0.000123 s⁻¹ and a kon of 766000 M⁻¹ s⁻¹.
In turn, B17 returned a Kd of 0.201 nM, a koff of 0.000129 s⁻¹ and a kon of 642000 M⁻¹ s⁻¹.
In turn, B18 registered a Kd of 0.208 nM, a koff of 0.00014 s⁻¹ and a kon of 673000 M⁻¹ s⁻¹.
The molecule B13 came in with a Kd of 1.01 nM, a koff of 0.000871 s⁻¹ and a kon of 860000 M⁻¹ s⁻¹.
Taken in the same sequence, the figures for B14 were 0.852 nM, 0.000638 s⁻¹ and 749000 M⁻¹ s⁻¹.
B15 showed a Kd of 0.836 nM, a koff of 0.000758 s⁻¹ and a kon of 907000 M⁻¹ s⁻¹.

In the next assay the target is T3, human LILRB1 expressed on CHOK1 cells …. Briefly: cell based RBA, flow cytometry: blocking of HLA-G binding to CHOK1-hLILRB1 cells.
Take B5: the EC50 is 2.16 nM and the “Top Inhibition” value was determined as 70.3%.
For B6, in that order: 0.69 nM and 82.5%.
For the molecule B7, the EC50 turned out to be 1.32 nM and the “Top Inhibition” value amounted to 32.7%.
B8: the EC50 was found to be 13.4 nM and the “Top Inhibition” value was 35.3%.
For B9, the EC50 came out at 0.94 nM and the “Top Inhibition” value came out at 79.6%.
On to B10, for which the EC50 stood at 1.61 nM and the “Top Inhibition” value came out at 87.3%.
In the case of B12, the EC50 is 1.26 nM and the “Top Inhibition” value turned out to be 89.1%.
For B11, in that order: 2.86 nM and 70.8%.
